pKi: −log10 of the molar value.
Assays:
[1] = target: porcine trypsin (porcine) (UniProt P00761)
[2] = target: porcine trypsin (porcine) (UniProt P00761); test: enzyme inhibition kinetics (double-reciprocal, Lineweaver-Burk plot); 0, 66.66 and 133.33 ηmol L^−1 rTcTI against 10 µg porcine trypsin, 15 min at 37 °C, then substrate BApNA at 0.04–0.42 (printed ηmol L^−1) in 240 µL; absorbance at 410 nm; quadruplicate; competitive inhibition

UniProt P00761, sequence (P00761 9-231): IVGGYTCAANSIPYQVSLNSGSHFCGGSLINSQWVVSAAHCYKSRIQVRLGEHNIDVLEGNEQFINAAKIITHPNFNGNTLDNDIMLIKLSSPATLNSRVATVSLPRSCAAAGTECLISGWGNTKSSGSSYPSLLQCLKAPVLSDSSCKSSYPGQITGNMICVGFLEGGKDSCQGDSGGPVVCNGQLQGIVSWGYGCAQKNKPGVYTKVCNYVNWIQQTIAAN

- residual trypsin activity (hydrolysis of BApNA, absorbance at 410 nm) with rTcTI rising from 0.5 to 1.2 μmol L^−1; 70% at the lower concentration [1]: 12%
- pKi [2]: 6.39
Substance: recombinant Theobroma cacao trypsin inhibitor (rTcTI) (natural protein)
